Assay results as given in the supplement of paper PMC11246515.
± gives the standard deviation of the averaged measurements.

Assay: total protein half-life in vivo (active degradation + dilution); higher = more stable protein
[1] = E. coli NCM3722 delta-clpP delta-lon delta-hslV, growth: N-lim chemostat, doubling time 6 h
[2] = E. coli NCM3722 delta-clpP, growth: N-lim chemostat, doubling time 6 h
[3] = E. coli NCM3722 delta-hslV, growth: N-lim chemostat, doubling time 6 h
[4] = E. coli NCM3722 delta-lon, growth: N-lim chemostat, doubling time 6 h
[5] = E. coli NCM3722 delta-smpB, growth: N-lim chemostat, doubling time 6 h
[6] = wild type E. coli NCM3722, growth: C-lim chemostat, doubling time 3 h
[7] = wild type E. coli NCM3722, growth: C-lim chemostat, doubling time 6 h
[8] = wild type E. coli NCM3722, growth: C-lim chemostat, doubling time 12 h
[9] = wild type E. coli NCM3722, growth: N-lim chemostat, doubling time 6 h
[10] = wild type E. coli NCM3722, growth: N-lim chemostat, doubling time 12 h
[11] = wild type E. coli NCM3722, growth: P-lim chemostat, doubling time 6 h
[12] = wild type E. coli NCM3722, growth: P-lim chemostat, doubling time 12 h

Row | Sequence | total protein half-life in vivo [1] [h] | total protein half-life in vivo [2] [h] | total protein half-life in vivo [3] [h] | total protein half-life in vivo [4] [h] | total protein half-life in vivo [5] [h] | total protein half-life in vivo [6] [h] | total protein half-life in vivo [7] [h] | total protein half-life in vivo [8] [h] | total protein half-life in vivo [9] [h] | total protein half-life in vivo [10] [h] | total protein half-life in vivo [11] [h] | total protein half-life in vivo [12] [h]
1 | MSRNTEATDDVKTWTGGPLNYKEGFFTQLATDELAKGINEEVVRAISAKRNEPEWMLEFRLNAYRAWLEMEEPHWLKAHYDKLNYQDYSYYSAPSCGNCDDTCASEPGAVQQTGANAFLSKEVEAAFEQLGVPVREGKEVAVDAIFDSVSVATTYREKLAEQGIIFCSFGEAIHDHPELVRKYLGTVVPGNDNFFAALNAAVASDGTFIYVPKGVRCPMELSTYFRINAEKTGQFERTILVADEDSYVSYIEGCSAPVRDSYQLHAAVVEVIIHKNAEVKYSTVQNWFPGDNNTGGILNFVTKRALCEGENSKMSWTQSETGSAITWKYPSCILRGDNSIGEFYSVALTSGHQQADTGTKMIHIGKNTKSTIISKGISAGHSQNSYRGLVKIMPTATNARNFTQCDSMLIGANCGAHTFPYVECRNNSAQLEHEATTSRIGEDQLFYCLQRGISEEDAISMIVNGFCKDVFSELPLEFAVEAQKLLAISLEHSVG | 4.92 ± 0.3 | 2.89 ± 0.11 | 1.46 ± 0.085 | 1.98 ± 0.2 | 1.58 ± 0.085 | 1.85 ± 0.4 | 3.12 ± 0.02 | 4.99 ± 0.85 | 1.51 ± 0.56 | 2.29 | 3.223 ± 0.00026 | 5.113 ± 0.048
2 | MSRPLLQLALDHSSLEAAQRDVTLLKDSVDIVEAGTILCLNEGLGAVKALREQCPDKIIVADWKVADAGETLAQQAFGAGANWMTIICAAPLATVEKGHAMAQRCGGEIQIELFGNWTLDDARDWHRIGVRQAIYHRGRDAQASGQQWGEADLARMKALSDIGLELSITGGITPADLPLFKDIRVKAFIAGRALAGAANPAQVAGDFHAQIDAIWGGARA | 4.65 | 4 | 4.08 ± 0.35 | 4.77 | 4.3 ± 0.38 | 3.07 ± 0.25 | 5.17 ± 0.32 | 9.07 ± 0.79 | 3.93 | 6.66 ± 0.91 | 5.76 | 9.91 ± 0.32
3 | MSRRAGTPTAKKVTQLVNVEEHVEGFRQVREAHRRELIDDYVELISDLIREVGEARQVDMAARLGVSQPTVAKMLKRLATMGLIEMIPWRGVFLTAEGEKLAQESRERHQIVENFLLVLGVSPEIARRDAEGMEHHVSEETLDAFRLFTQKHGAK [P0A9F1] | 5.72 ± 0.35 | 5.64 ± 0.32 | 4.73 ± 0.12 | 6 ± 0.3 | 5.06 ± 0.61 | 3 ± 0.046 | 5.03 ± 0.24 | 12 ± 5.5 | 4.66 ± 0.23 | 9.78 ± 2.5 | 3.96 ± 0.21 | 8.06 ± 0.26
4 | MSRRNTDAITIHSILDWIEDNLESPLSLEKVSERSGYSKWHLQRMFKKETGHSLGQYIRSRKMTEIAQKLKESNEPILYLAERYGFESQQTLTRTFKNYFDVPPHKYRMTNMQGESRFLHPLNHYNS [P0ACH5] | 3.42 ± 0.064 | – | – | > 8 | – | – | – | – | – | – | – | –
5 | MSSEKLYSPLKVGAITAANRIFMAPLTRLRSIEPGDIPTPLMAEYYRQRASAGLIISEATQISAQAKGYAGAPGIHSPEQIAAWKKITAGVHAENGHMAVQLWHTGRISHASLQPGGQAPVAPSALSAGTRTSLRDENGQAIRVETSMPRALELEEIPGIVNDFRQAIANAREAGFDLVELHSAHGYLLHQFLSPSSNHRTDQYGGSVENRARLVLEVVDAGIEEWGADRIGIRVSPIGTFQNTDNGPNEEADALYLIEQLGKRGIAYLHMSEPDWAGGEPYTDAFREKVRARFHGPIIGAGAYTVEKAETLIGKGLIDAVAFGRDWIANPDLVARLQRKAELNPQRAESFYGGGAEGYTDYPTL | 5.08 ± 0.17 | 2.14 ± 0.038 | 1.51 ± 0.027 | – | 1.5 ± 0.061 | 2.13 ± 0.48 | 2.98 ± 0.53 | 3.17 ± 0.57 | 1.66 ± 0.12 | 2.097 ± 0.015 | 1.55 ± 0.16 | 2.85 ± 1.7
6 | MSSKVERERRKAQLLSQIQQQRLDLSASRREWLETTGAYDRRWNMLLSLRSWALVGSSVMAIWTIRHPNMLVRWARRGFGVWSAWRLVKTTLKQQQLRG | 5.54 ± 0.84 | – | 6 ± 0.61 | 4.6 ± 1.6 | 5.78 ± 0.53 | 2.56 ± 0.29 | 4.85 ± 0.21 | 8.71 | 5.6 ± 1.8 | 11.4 | 4.85 | 10.2 ± 0.32
7 | MSSLPVAAVLPELLTALDCAPQVLLSAPTGAGKSTWLPLQLLAHPGINGKIILLEPRRLAARNVAQRLAELLNEKPGDTVGYRMRAQNCVGPNTRLEVVTEGVLTRMIQRDPELSGVGLVILDEFHERSLQADLALALLLDVQQGLRDDLKLLIMSATLDNDRLQQMLPEAPVVISEGRSFPVERRYLPLPAHQRFDDAVAVATAEMLRQESGSLLLFLPGVGEIQRVQEQLASRIGSDVLLCPLYGALSLNDQRKAILPAPQGMRKVVLATNIAETSLTIEGIRLVVDCAQERVARFDPRTGLTRLITQRVSQASMTQRAGRAGRLEPGISLHLIAKEQAERAAAQSEPEILQSDLSGLLMELLQWGCSDPAQMSWLDQPPVVNLLAAKRLLQMLGALEGERLSAQGQKMAALGNDPRLAAMLVSAKNDDEAATAAKIAAILEEPPRMGNSDLGVAFSRNQPAWQQRSQQLLKRLNVRGGEADSSLIAPLLAGAFADRIARRRGQDGRYQLANGMGAMLDANDALSRHEWLIAPLLLQGSASPDARILLALLVDIDELVQRCPQLVQQSDTVEWDDAQGTLKAWRRLQIGQLTVKVQPLAKPSEDELHQAMLNGIRDKGLSVLNWTAEAEQLRLRLLCAAKWLPEYDWPAVDDESLLAALETWLLPHMTGVHSLRGLKSLDIYQALRGLLDWGMQQRLDSELPAHYTVPTGSRIAIRYHEDNPPALAVRMQEMFGEATNPTIAQGRVPLVLELLSPAQRPLQITRDLSDFWKGAYREVQKEMKGRYPKHVWPDDPANTAPTRRTKKYS | 5.57 ± 0.07 | 5.56 ± 0.99 | 3.91 ± 0.046 | 4.29 ± 0.098 | 4.21 ± 0.25 | 2.8 ± 0.11 | 4.648 ± 0.041 | 9.65 ± 3.8 | 3.97 ± 0.26 | 6.433 ± 0.061 | 4.905 ± 0.044 | 9.09 ± 0.45
8 | MSSMTTTDNKAFLNELARLVGSSHLLTDPAKTARYRKGFRSGQGDALAVVFPGSLLELWRVLKACVTADKIILMQAANTGLTEGSTPNGNDYDRDVVIISTLRLDKLHVLGKGEQVLAYPGTTLYSLEKALKPLGREPHSVIGSSCIGASVIGGICNNSGGSLVQRGPAYTEMSLFARINEDGKLTLVNHLGIDLGETPEQILSKLDDDRIKDDDVRHDGRHAHDYDYVHRVRDIEADTPARYNADPDRLFESSGCAGKLAVFAVRLDTFEAEKNQQVFYIGTNQPEVLTEIRRHILANFENLPVAGEYMHRDIYDIAEKYGKDTFLMIDKLGTDKMPFFFNLKGRTDAMLEKVKFFRPHFTDRAMQKFGHLFPSHLPPRMKNWRDKYEHHLLLKMAGDGVGEAKSWLVDYFKQAEGDFFVCTPEEGSKAFLHRFAAAGAAIRYQAVHSDEVEDILALDIALRRNDTEWYEHLPPEIDSQLVHKLYYGHFMCYVFHQDYIVKKGVDVHALKEQMLELLQQRGAQYPAEHNVGHLYKAPETLQKFYRENDPTNSMNPGIGKTSKRKNWQEVE | 6.43 ± 0.27 | 6.81 ± 1 | 5.82 ± 0.25 | 5.72 ± 0.37 | 5.06 ± 0.94 | 1.97 ± 0.11 | 4.28 ± 0.33 | 10 ± 0.23 | 5.98 ± 0.4 | 10.2 ± 0.66 | 4.92 ± 0.78 | 9.79 ± 1.1
9 | MSSNFRHQLLSLSLLVGIAAPWAAFAQAPISSVGSGSVEDRVTQLERISNAHSQLLTQLQQQLSDNQSDIDSLRGQIQENQYQLNQVVERQKQILLQIDSLSSGGAAAQSTSGDQSGAAASTTPTADAGTANAGAPVKSGNANTDYNAAIALVQDKSRQDDAMVAFQNFIKNYPDSTYLPNANYWLGQLNYNKGKKDDAAYYFASVVKNYPKSPKAADAMFKVGVIMQDKGDTAKAKAVYQQVISKYPGTDGAKQAQKRLNAM | 5.65 ± 0.36 | – | 5.26 ± 0.17 | 5.96 ± 0.72 | 5.27 ± 1.5 | – | 6.4 ± 1 | 8.8 ± 1.9 | 5.61 ± 0.1 | 11.3 ± 0.16 | 5.31 ± 1.9 | 11.6 ± 0.52
10 | MSSQYLRIFQQPRSAILLILGFASGLPLALTSGTLQAWMTVENIDLKTIGFFSLVGQAYVFKFLWSPLMDRYTPPFFGRRRGWLLATQILLLVAIAAMGFLEPGTQLRWMAALAVVIAFCSASQDIVFDAWKTDVLPAEERGAGAAISVLGYRLGMLVSGGLALWLADKWLGWQGMYWLMAALLIPCIIATLLAPEPTDTIPVPKTLEQAVVAPLRDFFGRNNAWLILLLIVLYKLGDAFAMSLTTTFLIRGVGFDAGEVGVVNKTLGLLATIVGALYGGILMQRLSLFRALLIFGILQGASNAGYWLLSITDKHLYSMGAAVFFENLCGGMGTSAFVALLMTLCNKSFSATQFALLSALSAVGRVYVGPVAGWFVEAHGWSTFYLFSVAAAVPGLILLLVCRQTLEYTRVNDNFISRTAYPAGYAFAMWTLAAGVSLLAVWLLLLTMDALDLTHFSFLPALLEVGVLVALSGVVLGGLLDYLALRKTHLT [P0AE16] | – | 5.97 | – | – | 6.24 | – | 4.45 | 4.64 | 6.55 | 12.4 ± 4.7 | – | 10.3 ± 1.2
11 | MSSRNNPARVAIVMGSKSDWATMQFAAEIFEILNVPHHVEVVSAHRTPDKLFSFAESAEENGYQVIIAGAGGAAHLPGMIAAKTLVPVLGVPVQSAALSGVDSLYSIVQMPRGIPVGTLAIGKAGAANAALLAAQILATHDKELHQRLNDWRKAQTDEVLENPDPRGAA [P0AG18] | 5.15 ± 0.26 | 4.94 ± 0.41 | 4.8 ± 0.085 | 4.93 ± 0.088 | 4.71 ± 0.3 | 2.77 ± 0.034 | 5.47 ± 0.46 | 9.5 ± 0.76 | 4.67 ± 0.13 | 6.68 ± 0.46 | 5.68 ± 0.13 | 10.9 ± 0.31
